Reference: patent US6368619B1, “Hydrophobic preparations of hydrophilic species and process for their preparation” (Provalis UK Limited, priority 1993, dated 2002)

Key:
Format in all cases: physicochemical
[1] = Dispersion of hydrophilic species/amphiphile array in hydrophobic solvent: visual optical clarity
[2] = Turbidity of oil preparations by optical density / absorbance (plate reader); conditions: for OD650: Example 23: HDPoC, one hour; for optical density at 550 nm: Example 25: 0.5 mg protein/well, oleic acid
Method: It is very much preferred that the preparations of the invention are optically clear and this can be monitored by measuring turbidity at visible wave lengths and, in some cases, by checking for sedimentation over a period of time. […]
Aprotinin was dissolved in distilled water at a concentration of 10 mg/ml. Hexadecyl phosphocholine (HDPoC) was dissolved in distilled water at a concentration of 100 mg/ml. To aliquots of 100 μl of aprotinin solution, volumes of HDPOC were added ranging from 0 through to 10, 20, 30, 40 to 50 μl. The mixtures were frozen at −20° C. and lyophilised overnight. The following day 100 μl of oleic acid was added to each sample and shaken for one hour at room temperature on an orbital shaker.
Octyl glucoside was dissolved in distilled water and dispensed into wells of a microplate to give the following amounts of amphiphile per well: −0, 0.5, 1.0, 1.5, 2.0, 2.5, 5, 7.5 and 10 mg. Aprotinin was dissolved in distilled water at a concentration of 5 mg/ml, and 100 μl was dispensed into each well above, containing 0.5 mg of protein. The plate was mixed well, frozen at −20° C. and lyophilised overnight. The following day, […] of oleic acid was added to each well. The plate was shaken at room temperature, and optical density measurements at 550 nm taken at intervals with a plate reader. A low absorbance value indicates a low level of scattering, and corresponds to effective dispersion of protein in oil.
The results, expressed in terms of optical density as a function of octyl glucoside concentration (at constant protein concentration) at different times after addition of oleic acid are given in the table and accompanying graph.

[3] = Percent sedimentation after 24 hours of macromolecules dispersed in oleic acid with and without PC; conditions: 300 μl oleic acid, error ±5%; for Percent sedimentation after 24 hours, +PC: Example 17: with egg yolk PC SUVs; for Percent sedimentation after 24 hours, −PC: Example 17: without PC
Method: 10 mg of cytochrome C, haemoglobin and FITC-dextran were each dissolved in 1 ml of distilled water. 4.4 mg of RNA (extracted from Torula yeast) was dissolved in 1 ml of phosphate-buffered saline. 2×50 μl of each of these solution was dispensed into fresh glass tubes, and to one of each of these sets of solutions was added 250 μl of SUVs prepared as in example 1 at a concentration of 40 mg/ml of egg yolk lecithin (PC).
Both sets of tubes were shell-frozen and lyophilised overnight as above. The following day 300 μl of oleic acid was added to each of the tubes. The samples were left to stand at room temperature with occasional vortexing for one hour until complete dispersion had been achieved. The oils were allowed to stand overnight. The turbidity of the samples prepared without PC was greater than those containing PC.
The following day, sediments had settled out in the samples prepared without PC. Without disturbing any of the samples, the top 150 μl of each sample was taken off, and the absorbances measured of both the material removed, and the material left behind, after mixing; comparison of the two readings allowed one to calculate the percentage sedimentation for samples with and without PC (error in measurements ±5%) Values obtained are listed below.

[4] = Example 7: salmon calcitonin together with aprotinin, egg PC (EmulsiFlex), glycerol mono-oleate BP

For `NC[C@@H]1O[C@H](O[C@H]2[C@@H](O)[C@H](O[C@@H]3[C@@H](O)[C@H](N)C[C@H](N)[C@H]3O[C@H]3O[C@H](CN)[C@@H](O)[C@H](O)[C@H]3N)O[C@@H]2CO)[C@H](N)[C@@H](O)[C@@H]1O.O=S(=O)(O)O` [Neomycin sulphate, reference compound], the appearance of solution ([1]; Example 27: soya PC dispersion, 1 g Miglyol 818, overnight at room temperature) was “optically clear solution”.
In the case of aprotinin, the “appearance of oil phase” value ([1]; Example 3: lyophilate stored 5 days at 4° C. in desiccator with phosphorus pentoxide, then 300 mg oleic acid) is reported as “optically clear oil phase”, the appearance of dispersion [1, 4] is reported as “optically clear opalescent dispersion” and the appearance of solution ([1]; Example 23: HDPoC, lipid:protein ratio 4:1, oleic acid) is reported as “Optically clear solutions”. For the same compound, the appearance of solution ([1]; Example 23: HDPoC, lipid:protein ratio 5:1, oleic acid) was “Optically clear solutions”, the appearance of dispersion ([1]; Example 36: AOT amphiphile, 200 mg octanol, cleared rapidly, state after 24 hours) was “opalescent dispersion” and the OD650 ([2]; lipid:protein ratio 0, 100 μl oleic acid) was 1.117. For the same compound, the OD650 ([2]; lipid:protein ratio 1:1, 100 μl oleic acid) was 0.869, the OD650 ([2]; lipid:protein ratio 2:1, 100 μl oleic acid) was 0.438 and the OD650 ([2]; lipid:protein ratio 3:1, 100 μl oleic acid) was 0.207. For the same compound, the OD650 ([2]; lipid:protein ratio 4:1, 100 μl oleic acid) was 0.094, the OD650 ([2]; lipid:protein ratio 5:1, 100 μl oleic acid) was 0.099 and the “optical density at 550 nm” value ([2]; octyl glucoside 0.00 mg/well, 1 hr) was 0.548. For the same compound, the “optical density at 550 nm” value ([2]; octyl glucoside 0.00 mg/well, 4 hr) was 0.458, the “optical density at 550 nm” value ([2]; octyl glucoside 0.00 mg/well, 8 hr) was 0.489 and the “optical density at 550 nm” value ([2]; octyl glucoside 0.50 mg/well, 1 hr) was 0.082. For the same compound, the “optical density at 550 nm” value ([2]; octyl glucoside 0.50 mg/well, 4 hr) was 0.043, the “optical density at 550 nm” value ([2]; octyl glucoside 0.50 mg/well, 8 hr) was 0.103 and the “optical density at 550 nm” value ([2]; octyl glucoside 1.00 mg/well, 1 hr) was −0.003. The “optical density at 550 nm” value ([2]; octyl glucoside 1.00 mg/well, 4 hr) was −0.008, the “optical density at 550 nm” value ([2]; octyl glucoside 1.00 mg/well, 8 hr) was −0.008 and the “optical density at 550 nm” value ([2]; octyl glucoside 1.50 mg/well, 1 hr) was −0.004. For the same compound, the “optical density at 550 nm” value ([2]; octyl glucoside 1.50 mg/well, 4 hr) was −0.015, the “optical density at 550 nm” value ([2]; octyl glucoside 1.50 mg/well, 8 hr) was −0.015 and the “optical density at 550 nm” value ([2]; octyl glucoside 2.00 mg/well, 1 hr) was −0.007. The “optical density at 550 nm” value ([2]; octyl glucoside 2.00 mg/well, 4 hr) was −0.012, the “optical density at 550 nm” value ([2]; octyl glucoside 2.00 mg/well, 8 hr) was −0.013 and the “optical density at 550 nm” value ([2]; octyl glucoside 2.50 mg/well, 1 hr) was 0.006. For the same compound, the “optical density at 550 nm” value ([2]; octyl glucoside 2.50 mg/well, 4 hr) was −0.004, the “optical density at 550 nm” value ([2]; octyl glucoside 2.50 mg/well, 8 hr) was −0.002 and the “optical density at 550 nm” value ([2]; octyl glucoside 5.00 mg/well, 1 hr) was 0.307. The “optical density at 550 nm” value ([2]; octyl glucoside 5.00 mg/well, 4 hr) was −0.013, the “optical density at 550 nm” value ([2]; octyl glucoside 5.00 mg/well, 8 hr) was −0.014 and the “optical density at 550 nm” value ([2]; octyl glucoside 7.50 mg/well, 1 hr) was 0.65. For the same compound, the “optical density at 550 nm” value ([2]; octyl glucoside 7.50 mg/well, 4 hr) was −0.015, the “optical density at 550 nm” value ([2]; octyl glucoside 7.50 mg/well, 8 hr) was −0.014 and the “optical density at 550 nm” value ([2]; octyl glucoside 10.00 mg/well, 1 hr) was 1.628. For the same compound, the “optical density at 550 nm” value ([2]; octyl glucoside 10.00 mg/well, 4 hr) was 0.817 and the “optical density at 550 nm” value ([2]; octyl glucoside 10.00 mg/well, 8 hr) was −0.014.
In the case of ribonuclease, the appearance of dispersion ([1]; Example 31: soy PC SUV, 1.6 g Miglyol 818, after several hours) is reported as “clear dispersion”.
With ferritin the appearance of solution ([1]; Example 18: egg yolk PC SUVs, ammonium acetate 10 mg/ml, oleic acid) was “optically clear solutions were obtained (although ferritin solution showed some opalescence, and was strongly coloured)”.
For carboxyfluorescein [reference compound], the appearance of dispersions ([1]; Example 33: soy PC SUV, melts of tripalmitin, triheptadecanoin or tristearin with 2% oleic acid, 78 C, after several minutes) was “completely clear”.
In the case of Haemoglobin, the “Percent sedimentation after 24 hours, +PC” value [3] is reported as 0% and the “Percent sedimentation after 24 hours, −PC” value [3] is reported as 44%.
In the case of `[Ca+2].[Cl-].[Cl-]` [calcium chloride], the appearance of dispersion ([1]; Example 35: soy PC SUV, 500 mg Miglyol 818, after standing overnight) is reported as “completely clear dispersion” and the appearance of dispersion ([1]; Example 35: soy PC SUV, 500 mg oleic acid, after several hours) is reported as “completely clear dispersion”.
With Salmon calcitonin the “appearance of oil phase” value ([1]; Example 1: egg PC SUVs, lyophilised, 300 mg oleic acid BP, one to two hours at room temperature) was “single clear lipid phase, which was optically transparent”, the “protein content of clear preparation” value ([1]; Example 2: soy PC SUVs, 95% oleic acid) was 6.7 mg protein/g oleic acid and the appearance of preparation ([1]; Example 2: soy PC SUVs, lyophilised, 1.2 g of 95% oleic acid) was “completely clear”. For the same compound, the “appearance of oil phase” value ([1]; Example 4: 13.4 mg protein, 100 mg soy PC, 200 mg oleic acid) was “clear oil phase”, the “calcitonin content of clear oil phase” value ([1]; Example 4: soy PC SUVs, 200 mg oleic acid) was 42.7 mg calcitonin/g and the appearance of dispersion [1, 4] was “optically clear opalescent dispersion”. The appearance of dispersion ([1]; Example 11: 30 mg soy PC, 300 mg MCT oil, following morning) was “opalescent”, the appearance of dispersion ([1]; Example 11: 30 mg soy PC, 300 mg Miglyol 810, following morning) was “turbid” and the appearance of dispersion ([1]; Example 11: 30 mg soy PC, 300 mg Miglyol 812, following morning) was “opalescent”. The appearance of dispersion ([1]; Example 11: 30 mg soy PC, 300 mg Miglyol 818, following morning) was “completely clear”, the appearance of dispersion ([1]; Example 11: 30 mg soy PC, 300 mg Miglyol 829, following morning) was “completely clear” and the appearance of dispersion ([1]; Example 11: 30 mg soy PC, 300 mg Miglyol 840, following morning) was “turbid”.
With Cytochrome C the “Percent sedimentation after 24 hours, +PC” value [3] was 3.1% and the “Percent sedimentation after 24 hours, −PC” value [3] was 76%.
